According to the supplement of paper PMC7877785:
± gives the uncertainty stated by the source.

Assay: self-splicing fitness, log relative to wild type (ln ratio); higher = more splicing; Tetrahymena group I intron in knt gene, E. coli kanamycin selection, DiMSum; sequences stand for … in CUCUCU…GGAGGGAAAAGUUAUCAGGCAUGCACCUGGUAGCUAGUCUUUAAACCAAUAGAUUGCAUCGGUUUAAAAGGCAAGACCGUCAAAUUGCGGGAAAGGGGUCAACAGCCGUUCAGUACCAAGUCUCAGGGGAAACUUUGAGAUGGCCUUGCAAAGGGUAUGGUAAUAAGCUGACGGACAUGGUCCUAACCACGCAGCCAAGUCCUAAGUCAACAGAUCUUCUGUUGAUAUGGAUGCAGUUCACAGACUAAAUGUCGGUCGGGGAAGAUGUAUUCUUCUCAUAAGAUAUAGUCGGACCUCUCCUUAAUGGGAGCUAGCGGAUGAAGUGAUGCAACACUGGAGCCGCUGGGAACUAAUUUGUAUGCGAAAGUAUAUUGAUUAGUUUUGGAGUACUCGUGGUCG
Method in brief: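 Colonies from six replicate transformations of E. coli BL21(DE3) were pooled and amplicon-sequenced on an Illumina HiSeq 2500. The library placed an intron with all eight P1ex-region nucleotides randomised inside the knt kanamycin-resistance gene on pET-22b(+), and cells grew overnight at 37°C or 30°C on LB agar with or without 25 μg/mL kanamycin (plus 100 μg/mL carbenicillin, 50 μM IPTG, 0.2% rhamnose). Fitness is the DiMSum error-weighted combination of wild-type-normalised replicate fold changes, kanamycin versus none.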

Row | Sequence | self-splicing fitness (ln) (30 °C) | self-splicing fitness (ln) (37 °C)
1 | CCGAAGCAAUAUUACGUGCC | -2.83 ± 0.29 | -2.64 ± 0.44
2 | CCGAAGCAAUAUUACGUGUA | -4.03 ± 0.22 | -2.81 ± 0.19
3 | CCGAAGCAAUAUUACGUUCC | -3.94 ± 0.37 | -2.81 ± 0.37
4 | CCGCAGCAAUAUUACGACUU | -3.51 ± 0.35 | -1.68 ± 0.32
5 | CCGCAGCAAUAUUACGAGAG | -2.62 ± 0.084 | -1.56 ± 0.082
6 | CCGCAGCAAUAUUACGAGCA | -3.01 ± 0.38 | -3.24 ± 0.47
7 | CCGCAGCAAUAUUACGCACU | -2.9 ± 0.19 | -2.51 ± 0.24
8 | CCGCAGCAAUAUUACGCAUG | -2.91 ± 0.1 | -0.661 ± 0.076
9 | CCGCAGCAAUAUUACGCCAA | -3.73 ± 0.38 | -2.06 ± 0.34
10 | CCGCAGCAAUAUUACGCCCA |  | -2.55 ± 0.31
11 | CCGCAGCAAUAUUACGCGCA | -3.08 ± 0.27 | -1.41 ± 0.16
12 | CCGCAGCAAUAUUACGCGUA | -2.58 ± 0.16 | -0.978 ± 0.11
13 | CCGCAGCAAUAUUACGCUCU | -4.04 ± 0.42 | -2.18 ± 0.2
14 | CCGCAGCAAUAUUACGCUGG | -2.24 ± 0.11 | -2.92 ± 0.24
15 | CCGCAGCAAUAUUACGCUGU | -3.3 ± 0.36 | -2.85 ± 0.23
16 | CCGCAGCAAUAUUACGCUUU | -3.86 ± 0.18 | -2.97 ± 0.18
17 | CCGCAGCAAUAUUACGGAAC | -3.52 ± 0.41 | -3.41 ± 0.29
18 | CCGCAGCAAUAUUACGGAGC | -3.52 ± 0.14 | -2.48 ± 0.18
19 | CCGCAGCAAUAUUACGGAGU | -4.11 ± 0.21 | -3.01 ± 0.23
20 | CCGCAGCAAUAUUACGGCUA | -3.46 ± 0.23 | -2.61 ± 0.22
21 | CCGCAGCAAUAUUACGGCUU | -4.44 ± 0.27 | -2.45 ± 0.21
22 | CCGCAGCAAUAUUACGGGAC | -4.12 ± 0.46 | -2.65 ± 0.29
23 | CCGCAGCAAUAUUACGGGAG | -3.26 ± 0.16 | -3.06 ± 0.24
24 | CCGCAGCAAUAUUACGGGCU | -3.56 ± 0.18 | -3.05 ± 0.22
25 | CCGCAGCAAUAUUACGGUUC | -3.51 ± 0.28 | -3.67 ± 0.37
26 | CCGCAGCAAUAUUACGUGGG | -3.41 ± 0.12 | -3.02 ± 0.17

Row | Sequence | self-splicing fitness (ln) (30 °C) | self-splicing fitness (ln) (37 °C)
27 | CCGCAGCAAUAUUACGUUAA | -3.03 ± 0.18 | -2.1 ± 0.2
28 | CCGCAGCAAUAUUACGUUUG | -1.62 ± 0.065 | -1.36 ± 0.096
29 | CCGGAGCAAUAUUACGAAUC | -4.01 ± 0.46 | 
30 | CCGGAGCAAUAUUACGACCG | -1.71 ± 0.5 | 
31 | CCGGAGCAAUAUUACGCAAU | -2.59 ± 0.36 | 
32 | CCGGAGCAAUAUUACGCCAG | -3.49 ± 0.2 | -2.31 ± 0.24
33 | CCGGAGCAAUAUUACGCCGA | -3.86 ± 0.41 | 
34 | CCGGAGCAAUAUUACGCGCU | -1.24 ± 0.17 | 
35 | CCGGAGCAAUAUUACGCGUC |  | -2.18 ± 0.39
36 | CCGGAGCAAUAUUACGGGGG | -3.5 ± 0.2 | -1.83 ± 0.17
37 | CCGGAGCAAUAUUACGGGGU | -3.59 ± 0.2 | -2.93 ± 0.26
38 | CCGGAGCAAUAUUACGGUUA | -2.44 ± 0.35 | -2.64 ± 0.48
39 | CCGGAGCAAUAUUACGGUUG | -1.16 ± 0.14 | -1.25 ± 0.16
40 | CCGGAGCAAUAUUACGUAAA | -3.29 ± 0.25 | -2.09 ± 0.47
41 | CCGGAGCAAUAUUACGUAAC | -2.38 ± 0.38 | -1.45 ± 0.43
42 | CCGGAGCAAUAUUACGUGAU | -2.17 ± 0.19 | -1.54 ± 0.3
43 | CCGGAGCAAUAUUACGUUCA | -1.23 ± 0.17 | -1.63 ± 0.29
44 | CCGUAGCAAUAUUACGAACG | -1.07 ± 0.12 | -0.439 ± 0.15
45 | CCGUAGCAAUAUUACGAAUU | -3.75 ± 0.25 | -2.85 ± 0.34
46 | CCGUAGCAAUAUUACGAGUC | -2.86 ± 0.23 | 
47 | CCGUAGCAAUAUUACGAUAC | -3.22 ± 0.24 | 
48 | CCGUAGCAAUAUUACGAUCU |  | -2.46 ± 0.45
49 | CCGUAGCAAUAUUACGAUGU | -4.42 ± 0.33 | -1.79 ± 0.18
50 | CCGUAGCAAUAUUACGCAGA | -2.96 ± 0.25 | -2.74 ± 0.24
51 | CCGUAGCAAUAUUACGCCUU | -3.08 ± 0.44 | -2.19 ± 0.31
